Patent US20150218281A1 (Ablynx, published 2015)

B4: recombinant human OX40L (extracellular domain, R&D Systems) (ligand)
chain: QVSHRYPRIQSIKVQFTEYKKEKGFILTSQKEDEIMKVQNNSVIINCDGFYLISLKGYFSQEVNISLHYQKDEEPLFQLKKVRSVNSLMVASLTYKDKVYLNVTTDNTSLDDFHVNGGELILIHQNPGEFCVL
notes: also called hOX40L; rec. hOX40L

Columns and labels:
[1] = target: B4; assay: cell-based or functional assay
[2] = target: T1, biotinylated hOX40L (R&D Systems, biotinylated in house) (human, UniProt P23510 51-183, biotinylated with Sulfo-NHS-LC-Biotin, sites not stated); assay: hOX40L/hOX40 AlphaScreen, assay 3, native
T1 construct: same bought protein as m10, biotinylated; also called biotinylated OX40L
T1 sequence: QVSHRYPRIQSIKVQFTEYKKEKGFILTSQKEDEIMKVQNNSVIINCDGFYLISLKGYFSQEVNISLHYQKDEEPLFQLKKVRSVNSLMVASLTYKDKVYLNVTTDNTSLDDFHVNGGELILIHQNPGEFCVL
Protocol: (§1) Next, streptavidin donor beads were added and incubated for an additional 1 hour. Fluorescence was measured by reading plates on the EnVision Multilabel Plate Reader using an excitation wavelength of 680 nm and an emission wavelength of 520 nm.
(§2) In the TSA assay, Nanobodies were diluted to a concentration of 0.2 mg/ml and melting temperature (Tm) was determined at different pH by stepwise increase in temperature in presence of Sypro Orange, a dye that binds to […] residues that become exposed upon unfolding of the protein, using the Lightcycler (Roche) for detection. […] In SEC analysis, the Nanobodies were analyzed on a Phenomenex matrix to allow detection of multimers, aggregates or ‘stickyness’.

[3] = target: T1, biotinylated hOX40L (R&D Systems, …); assay: hOX40L/hOX40 AlphaScreen, assay 2, heated at Tm+10 C
Protocol: as §1, §2

[4] = target: T1, biotinylated hOX40L (R&D Systems, …); assay: hOX40L/hOX40 AlphaScreen, assay 3, heated at Tm+10 C
Protocol: as §1, §2

[5] = target: T1, biotinylated hOX40L (R&D Systems, …); assay: hOX40L/hOX40 AlphaScreen, assay 2, native; assay 2, native (not Tm + 10° C.)
[6] = target: T1, biotinylated hOX40L (R&D Systems, …); assay: hOX40L/hOX40 AlphaScreen
[7] = target: T2, OX40L01E07; assay: competition ELISA: fixed concentration of OX40L01E07 pre-incubated with a concentration series of soluble hOX40L, then added to biotinylated hOX40L captured on neutravidin; bound Nanobody detected with rabbit anti-VHH antiserum and HRP goat anti-rabbit IgG, OD450nm
T2 construct: monovalent Nanobody from E. coli; not shown: C-terminal c-myc and His6 tag
T2 sequence (VHH, as listed by the source): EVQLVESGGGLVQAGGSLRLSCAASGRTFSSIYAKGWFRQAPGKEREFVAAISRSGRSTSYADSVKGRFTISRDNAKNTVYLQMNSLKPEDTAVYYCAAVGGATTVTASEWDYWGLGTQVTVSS
Protocol: The binding of OX40L blocking Nanobodies to other TNF family members was tested in a competition ELISA.
Detection was done using sTMB (SDT Reagents, Baesweiler, Germany), the reaction was stopped with 1M HCl and absorbance was determined at 450 nm.

B1: OX40L056 (VHH, not shown: small tags and cut ends)
VHH: DVQLVESGGGLVQPGGSLRLSCAASRSIGRLDRMGWYRHRPGKPRELVATITGGSSINYADSVKGRFTISRDNSKNTVYLQMNSLRPEDTAVYYCNFNKYVTSRDTWGQGTLVTVSS
IC50, T cell assay with rec. hOX40L [1]: 135 nM
IC50 [2]: 1.12 nM
IC50 [3]: 1.12 nM
IC50 [4]: 1.12 nM
IC50 [5]: 1.12 nM

B2: OX40L083 (VHH, not shown: small tags and cut ends)
VHH: EVQLVESGGGLVQPGGSLRLSCAASRSIGRLDRMGWYRHRPGKPRELVATITGGSSINYGDSVKGRFTISIDNSKNTVYLQMNSLRPEDTAVYYCNFNKYVTSRDTWGQGTLVTVSS
fold drop in potency compared with the parental Nanobody OX40L15B07 [6]: ~6 fold

B3: OX40L082 (VHH, not shown: small tags and cut ends)
VHH: EVQLVESGGGLVQPGGSLRLSCAASRSIGRLDRMGWYRHRPGEPRELVATITGGSSINYGDSVKGRFTISIDNSKNTVYLQMNSLRPEDTAVYYCNFNKYVTSRDTWGQGTLVTVSS
fold decrease in potency compared with the parental Nanobody OX40L15B07 [6]: ~2 fold
IC50 [2]: 0.14 nM
IC50 [4]: 0.14 nM

B4
IC50 (read off the curve) [7]: ~0.8 nM
